Residue numbers refer to the chain shown, from its start. Names may count otherwise.
B1: MsHPPDm-F372A-02: nucleotide sequence encoding Medicago sativa HPPD with F372A; vector DBN11735 (nucleic acid)
DNA: ATGGCTATTGAAACCGAAACACAAACTCAGACTGGATTTAAACTGGTAGGGTTCAAGAATTTCGTTAGGGCTAATCCCAAGTCTGATCGTTTTAAGGTCAAGAGGTTCCACCACGTGGAGTTCTGGTGCACTGATGCAACCAACACGGCGCGGCGTTTTTCACATGGTCTTGGAATGCCTATTGTTGCAAAATCCGACCTCTCCACGGGGAACCAAACACACGCCTCTTACCTGCTACGGAGTGGTGACTTGAACTTCCTCTTCAGCGCCGCCTACTCACCCTCCATATCGTTGTCTTCACCATCCTCGACCGCAGCAATTCCTACATTTTCTGCGAGCAACTGCTTCTCTTTCTCTGCCAGTCATGGCCTCGCCGTCAGAGCAGTGGCCGTTGAAGTAGAGGATGCTGAACTTGCTTTTACAACTTCAGTGAATAATGGAGCAATACCGAGCAGTCCGCCGGTCATACTTGAGAATCATGTGAAGCTAGCGGAGGTGAGGCTTTATGGGGACGTCGTTTTAAGATATGTCAGCTACAATGATCCAAACCCCAATCAAAATCCAAATTTGTTGTTCCTTCCTGGCTTCGAGCGTGTTAGCGATGAATCTTCAAACTCTTCACTGGATTTTGGAATCAGACGGTTGGATCATGCTGTTGGAAATGTTCCTGAACTCTCGAGCGCTGTGAAATATGTGAAGGACTTCACCGGTTTTCATGAATTTGCTGAGTTTACTGCAGAAGATGTGGGTACATCAGAGAGTGGCTTGAATTCCGTGGTGCTCGCCAACAACGAGGAGACTGTACTCTTACCAATGAATGAGCCAGTCTATGGCACCAAGCGTAAATCTCAAATTGAGACATATTTGGAGCACAATGAAGGAGCTGGACTTCAGCATCTCGCGCTGAAGAGTGAGGACATCTTCCGCACCCTACGGGAGATGAGGAAAAGAAGTGGTGTTGGTGGGTTTGAATTCATGCCATCACCTCCTGTCACCTACTACAGGAACCTGAAGAACAGAGTTGGTGATGTACTTTCGGACGAGCAGATAAAGGAATGTGAAGAGTTGGGGATTTTGGTTGATAGAGATGATCAAGGAACACTCCTGCAGATTGCCACAAAACCAATTGGCGACCGCCCCACTATCTTCATAGAGATCATCCAGAGGGTGGGGTGCATGCTCAAAGACGAGGAAGGGAAGGAGTACCAGAAGGGCGGCTGTGGTGGTTTTGGGAAAGGAAACTTTTCTGAGTTATTCAAATCAATTGAAGAGTATGAGAAGACGCTTGAAACGCGTCGCACTGCTTGA
modifications: MsHPPDm-F372A-02 Nucleotide Sequence
notes: vector DBN11735
B2: MsHPPDm-F383W-02: nucleotide sequence encoding Medicago sativa HPPD with F383W; vector DBN11736 (nucleic acid)
DNA: B1 DNA with G1114T, C1115T, C1116T, T1148G, C1149G
modifications: MsHPPDm-F383W-02 Nucleotide Sequence
notes: vector DBN11736

How the values were obtained:
Type in all cases: in vivo
[1] = test system: Arabidopsis thaliana T1 plants; assay: Topramezone tolerance of transgenic Arabidopsis thaliana T1 plants (spray, bleached leaf area grade, damage score); settings: 7 DAT, Table 4; for Classification and statistics of the grade of pesticide damage: Grade 0 / Classification and statistics of the grade of pesticide damage: Grade 1 / Classification and statistics of the grade of pesticide damage: Grade 2 / Classification and statistics of the grade of pesticide damage: Grade 3: number of plants; for Scores: pesticide damage score 0-100
Summary of the method: (§1)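 Read-out: per-plant damage grade 0–3 from proportion of bleached leaf area at 7 DAT (1 <50%, 2 >50%, 3 100%). Plants were T1 transformants, glufosinate-selected, plus wild-type CK, sprayed 18 days post-sowing. Rates: topramezone 25–200, isoxaflutole 35–280, mesotrione 52.5–420 g ai/ha.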

[2] = test system: Arabidopsis thaliana T1 plants; assay: Mesotrione tolerance of transgenic Arabidopsis thaliana T1 plants (spray, bleached leaf area grade, damage score); set-up: Scores: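 damage score 0-100 computed as Σ(N×S)/(T×M)×100 over grades 0-3 with higher meaning more damage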; settings: Arabidopsis thaliana T1 plants; for Grade 0 (classification and statistics of the grade of pesticide damage; number of plants) / Grade 1 (classification and statistics of the grade of pesticide damage; number of plants) / Grade 2 (classification and statistics of the grade of pesticide damage; number of plants) / Grade 3 (classification and statistics of the grade of pesticide damage; number of plants): 16 plants
Summary of the method: as §1

[3] = test system: Arabidopsis thaliana T1 plants; assay: Isoxaflutole tolerance of transgenic Arabidopsis thaliana T1 plants (spray, bleached leaf area grade, damage score); set-up: Scores (pesticide damage): scale not given here; settings: spray, Arabidopsis thaliana T1 plants; for Classification and statistics of the grade of pesticide damage: Grade 0 (number of plants) / Classification and statistics of the grade of pesticide damage: Grade 1 (number of plants) / Classification and statistics of the grade of pesticide damage: Grade 2 (number of plants) / Classification and statistics of the grade of pesticide damage: Grade 3 (number of plants): 16 plants
Summary of the method: as §1

[4] = isoxaflutole 35 g ai/ha (0.5x field concentration)
[5] = isoxaflutole 70 g ai/ha (1x field concentration)

Molecule	Classification and statistics of the grade of pesticide damage: Grade 0 ([1]; topramezone 25 g ai/ha (1×))	Classification and statistics of the grade of pesticide damage: Grade 1 ([1]; topramezone 25 g ai/ha (1×))	Classification and statistics of the grade of pesticide damage: Grade 2 ([1]; topramezone 25 g ai/ha (1×))	Classification and statistics of the grade of pesticide damage: Grade 3 ([1]; topramezone 25 g ai/ha (1×))	Classification and statistics of the grade of pesticide damage: Grade 0 ([1]; topramezone 100 g ai/ha (4×))	Classification and statistics of the grade of pesticide damage: Grade 1 ([1]; topramezone 100 g ai/ha (4×))	Classification and statistics of the grade of pesticide damage: Grade 2 ([1]; topramezone 100 g ai/ha (4×))	Classification and statistics of the grade of pesticide damage: Grade 3 ([1]; topramezone 100 g ai/ha (4×))	Scores ([1]; topramezone 25 g ai/ha (1×))	Scores ([1]; topramezone 100 g ai/ha (4×))	Resistance evaluation ([1]; topramezone 25 g ai/ha (1×))	Resistance evaluation ([1]; topramezone 100 g ai/ha (4×))	Resistance evaluation ([2]; mesotrione 52.5 g ai/ha)	Scores ([2]; mesotrione 52.5 g ai/ha)	Grade 0 (classification and statistics of the grade of pesticide damage; number of plants) ([2]; mesotrione 52.5 g ai/ha)	Grade 1 (classification and statistics of the grade of pesticide damage; number of plants) ([2]; mesotrione 52.5 g ai/ha)	Grade 2 (classification and statistics of the grade of pesticide damage; number of plants) ([2]; mesotrione 52.5 g ai/ha)	Grade 3 (classification and statistics of the grade of pesticide damage; number of plants) ([2]; mesotrione 52.5 g ai/ha)	Resistance evaluation ([2]; mesotrione 105 g ai/ha)	Scores ([2]; mesotrione 105 g ai/ha)	also measured
B1	5	7	4	0	0	4	9	3	31	65	moderately	poorly	Poorly resistant	52	0	9	5	2	Non-resistant	100	Grade 0 (classification and statistics of the grade of pesticide damage; number of plants) ([2]; mesotrione 105 g ai/ha): 0; Grade 1 (classification and statistics of the grade of pesticide damage; number of plants) ([2]; mesotrione 105 g ai/ha): 0; Grade 2 (classification and statistics of the grade of pesticide damage; number of plants) ([2]; mesotrione 105 g ai/ha): 0; Grade 3 (classification and statistics of the grade of pesticide damage; number of plants) ([2]; mesotrione 105 g ai/ha): 16; Resistance evaluation [3, 4]: Poorly; Scores (pesticide damage) [3, 4]: 54; Classification and statistics of the grade of pesticide damage: Grade 0 (number of plants) [3, 4]: 0; Classification and statistics of the grade of pesticide damage: Grade 1 (number of plants) [3, 4]: 6; Classification and statistics of the grade of pesticide damage: Grade 2 (number of plants) [3, 4]: 10; Classification and statistics of the grade of pesticide damage: Grade 3 (number of plants) [3, 4]: 0; Resistance evaluation [3, 5]: Non-resistant; Scores (pesticide damage) [3, 5]: 100; Classification and statistics of the grade of pesticide damage: Grade 0 (number of plants) [3, 5]: 0; Classification and statistics of the grade of pesticide damage: Grade 1 (number of plants) [3, 5]: 0; Classification and statistics of the grade of pesticide damage: Grade 2 (number of plants) [3, 5]: 0; Classification and statistics of the grade of pesticide damage: Grade 3 (number of plants) [3, 5]: 16
B2	0	0	4	12	0	0	0	16	92	100	non-resistant (non-resistant plants (scores 68-100))	non-resistant (non-resistant plants (scores 68-100))	Non-resistant	100	0	0	0	16	Non-resistant	100	Grade 0 (classification and statistics of the grade of pesticide damage; number of plants) ([2]; mesotrione 105 g ai/ha): 0; Grade 1 (classification and statistics of the grade of pesticide damage; number of plants) ([2]; mesotrione 105 g ai/ha): 0; Grade 2 (classification and statistics of the grade of pesticide damage; number of plants) ([2]; mesotrione 105 g ai/ha): 0; Grade 3 (classification and statistics of the grade of pesticide damage; number of plants) ([2]; mesotrione 105 g ai/ha): 16; Resistance evaluation [3, 4]: Non-resistant; Scores (pesticide damage) [3, 4]: 88; Classification and statistics of the grade of pesticide damage: Grade 0 (number of plants) [3, 4]: 0; Classification and statistics of the grade of pesticide damage: Grade 1 (number of plants) [3, 4]: 0; Classification and statistics of the grade of pesticide damage: Grade 2 (number of plants) [3, 4]: 6; Classification and statistics of the grade of pesticide damage: Grade 3 (number of plants) [3, 4]: 10; Resistance evaluation [3, 5]: Non-resistant; Scores (pesticide damage) [3, 5]: 100; Classification and statistics of the grade of pesticide damage: Grade 0 (number of plants) [3, 5]: 0; Classification and statistics of the grade of pesticide damage: Grade 1 (number of plants) [3, 5]: 0; Classification and statistics of the grade of pesticide damage: Grade 2 (number of plants) [3, 5]: 0; Classification and statistics of the grade of pesticide damage: Grade 3 (number of plants) [3, 5]: 16

Reference: patent US20250043302A1, “MUTATED HYDROXYPHENYLPYRUVATE DIOXYGENASE POLYPEPTIDE, AND CODING GENE AND USE THEREOF” (BEIJING DABEINONG BIOTECHNOLOGY CO., LTD., priority 2021, published 2025)
